Measurements from patent publication US20230151072A1 (XILIO DEVELOPMENT, published 2023).

Molecular target: T1, CD122-Fc (UniProt P14784 27-240, limits assumed)
T1 construct: Analyte flowed over the chip in SPR at 500, 250, 125, 62.5 and 31.25 nM; also called Fc-CD122; IL-2Rbeta
T1 sequence (looked up): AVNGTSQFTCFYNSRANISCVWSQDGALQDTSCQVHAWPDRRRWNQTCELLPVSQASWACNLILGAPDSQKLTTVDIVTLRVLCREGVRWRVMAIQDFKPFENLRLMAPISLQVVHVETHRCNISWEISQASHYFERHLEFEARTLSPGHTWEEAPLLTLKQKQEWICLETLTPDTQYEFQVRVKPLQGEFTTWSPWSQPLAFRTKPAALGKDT
Test: SPR, protease-cleaved construct amine-coupled on chip, CD122-Fc flowed
Experimental: For SPR studies testing binding of masked and non-masked IL-2 polypeptide constructs, Reichert Carboxymethyl Dextran Hydrogel Surface Sensor Chips were coated and immobilized with the construct of interest (e.g., a masked IL-2 polypeptide construct or non-masked IL-2 polypeptide construct) at 30 ug/ml in 10 mM Sodium Acetate, pH 5.0 via amine coupling with EDC and NHS. […] Using a Reichert 4Channel SPR, dilutions of CD25 or CD122 were flowed over the clips with the immobilized construct to determine the on rate at 25 degrees C. At equilibrium (approximately 3 minutes), the flow buffer was changed to PBST, to determine the off rates over 6 minutes. Between each run the chip was regenerated with 10 mM glycine, pH 2.0.
For some structures, when applicable, the KD was determined for the construct with or without having been previously cleaved by a protease.

B1: AK168 after protease cleavage (ligand)
chain: LYHPSGPAPTSSSTKKTQLQLEHLLLDLQMILNGINNYKNPKLTAMLTAKFAMPKKATELKHLQCLEEALKPLEEVLNLAQSKNFHLRPRDLISNINVIVLELKGSETTFMCEYADETATIVEFLNRWITFAQSIISTLT
notes: also called AK168 Cleavage Product
  Kd: 175 nM
